B1: SEQ ID NO 24 (designed binder, not shown: small tags and cut ends)
chain: MLPAPKNLVVSRVTEDSARLSWTAPDAAFDSFMIRYQEGTRWGEAIVLTVPGSERSYDLTGLKPGTEYIVMIAGVKGGQISLPLSAIFTT
notes: FN3 domain, hit of the apical domain panning
B2: SEQ ID NO 91 (designed binder, not shown: small tags and cut ends)
chain: MLPAPKNLVVSRVTEDSARLSWTAPDAAFDSFQIHYWETQGFGEAIVLTVPGSERSYDLTGLKPGTEYPVLIPGVKGGPSSLPLSAIFTT
notes: as for B1
B3: SEQ ID NO 35 (designed binder, not shown: small tags and cut ends)
chain: MLPAPKNLVVSRVTEDSARLSWTAPDAAFDSFPISYIESIADGEAIVLTVPGSERSYDLTGLKPGTEYWVAIVGVKGGPFSWSLSAIVTT
notes: as for B1
B4: SEQ ID NO 21 (designed binder, not shown: small tags and cut ends)
chain: MLPAPKNLVVSRVTEDSARLSWTAPDAAFDSFSIRYNEFIVAGEAIVLTVPGSERSYDLTGLKPGTEYDVPIAGVKGGGASWPLSAIVTT
notes: as for B1
B5: SEQ ID NO 100 (designed binder, not shown: small tags and cut ends)
chain: MLPAPKNLVVSRVTEDSARLSWTAPDAAFDSFYIWYEEVMYLGEAIVLTVPGSERSYDLTGLKPGTEYNVPIPGVKGGHSSPPLSAIFTT
notes: as for B1
B6: SEQ ID NO 25 (designed binder, not shown: small tags and cut ends)
chain: B5 chain with Y33P, E37L, V39K, M40S, L42Q, N69V, P73I, H79R, S80D, P82C
notes: as for B1
B7: SEQ ID NO 20 (designed binder, not shown: small tags and cut ends)
chain: MLPAPKNLVVARVTEDSARLSWTAPDAAIDSFPIDYSEYWWGGEAIVLTVPGSERSYDLTGLKPGTEYPVLITGVKGGYRSGPLSAIFTT
notes: as for B1
B8: SEQ ID NO 80 (designed binder, not shown: small tags and cut ends)
chain: MLPAPKNLVVSRVTEDSARLSWTAPDAAFDSFWIDYEEEGVIGEAIYLHVPGSERSYDLTGLKPGTEYVVKIHGVKGGHPSHPLVAVFTT
notes: as for B1
B9: SEQ ID NO 14 (designed binder, not shown: small tags and cut ends)
chain: MLPAPKNLVVSRVTEDSARLSWTAPDAAFDSFPIYYVENVVWGEAIVLTVPGSERSYDLTGLKPGTEYWEVIIGVKGGQCSRPLSAIFTT
notes: as for B1
B10: SEQ ID NO 79 (designed binder, not shown: small tags and cut ends)
chain: MLPAPKNLVVSRVTEDSARLSWTAPDAAFDSFVIEYTERFWSGEAIVLTVPGSERSYDLTGLKPGTEYSVPIDGVKGGQCSTPLSAIFTT
notes: as for B1
B11: SEQ ID NO 87 (designed binder, not shown: small tags and cut ends)
chain: B10 chain with V33A, R39F, F40L, W41Y, S69G, D73N, Q79F, C80V, T82P, F88V
notes: as for B1
B12: SEQ ID NO 96 (designed binder, not shown: small tags and cut ends)
chain: MSLPAPKNLVVSRVTEDSARLSWTAPDAAFDSFPIAYLEVFYEGEAIVLTVPGSERSYDLTGLKPGTEYQVPIEGVKGGAMSLPLSAIFTT
notes: as for B1
B13: SEQ ID NO 97 (designed binder, not shown: small tags and cut ends)
chain: MLPAPKNLVVSRVTEDSARLSWTAPDAAFDSFHIWYEEETTIGEAIYLHVPGSERSYDLTGLKPGTEYEVHITGVKGGPYSRPLFANFTT
notes: as for B1
B14: SEQ ID NO 23 (designed binder, not shown: small tags and cut ends)
chain: MLPAPKNLVVSRVTEDSARLSWTAPDAAFDSFAIWYHEWYGDGEAIVLTVPGSERSYDLTGPKPGTEYRVRISGVKGGFESGPLSAIFTT
notes: as for B1
B15: SEQ ID NO 89 (designed binder, not shown: small tags and cut ends)
chain: MLPAPENLVVSRVTEDSARLSWTAPDAAFDSFWIEYYEGVIQGEAIVLTVPGSERSYDLTGLKPGTEYFVAIWGVKGGKWSVPLSAIFTT
notes: as for B1
B16: SEQ ID NO 31 (designed binder, not shown: small tags and cut ends)
chain: MLPAPKNLVVSRVTEDSARLSWTAPDAAFDSFTIEYSEHPIDGEAIPLFVPGSERSYDLTGLKPGTEYYVRIHGVKGGWFSHPLWAFFTT
notes: as for B1
B17: SEQ ID NO 2 (designed binder, not shown: small tags and cut ends)
chain: MLPAPKNLVVSEVTEDSARLSWQGVARAFDSFMINYSELFWMGEAIVLTVPGSERSYDLTGLKPGTEYVVRIKGVKGGKGSWPLHAHFTT
notes: as for B1
B18: SEQ ID NO 16 (designed binder, not shown: small tags and cut ends)
chain: MLPAPKNLVVSRVTEDSARLSWTAPDAAFDSFGIAYREFRPSGEAIVLTVPGSERSYDLTVETGYRNEVVICGVKGGPWSGPLSAIFTT
notes: as for B1
B19: SEQ ID NO 22 (designed binder, not shown: small tags and cut ends)
chain: MLPAPKNLVVSRVTEDSARLSWTAPDAAFDSFWYLELQFAGEAIVLTVPGSERSYDLTGLKPGTEYNVPITGVKGGIISFPLSAIFTT
notes: as for B1
B20: SEQ ID NO 93 (designed binder, not shown: small tags and cut ends)
chain: MLPAPKNLVVSRVTEDSARLSWTAPDAAFDSFAIEYYEPVPAGEAIYLDVPGSERSYDLTGLKPGTEYDVTIYGVKGGYYSHPLFASFTT
notes: as for B1
B21: SEQ ID NO 98 (designed binder, not shown: small tags and cut ends)
chain: MLPAPKNLVVSRVTEDSARLSWTAPDAAFDSFGIAYDEWPEFGEAIVLTVPGSERSYDLTGLKPDTEYIVEIYGVKGGWFSWPLSAIFTT
notes: as for B1
B22: SEQ ID NO 27 (designed binder, not shown: small tags and cut ends)
chain: MLPAPKNLVVSRVTEDSARLSWTAPDAAFDSFRISYAETVRQGEAIVLTVPGSERSYDLTVETGYRNWVMILGVKGGPGSLPLSAIFTT
notes: as for B1
B23: SEQ ID NO 90 (designed binder, not shown: small tags and cut ends)
chain: MLPAPKNLVVSRVTEDSARLSWQGVARAFDSFLITYREQIFAGEVIVLTVPGSERSYDLTGLKPGTEYPVWIQGVKGGSPSAEFTT
notes: as for B1

Where a chain is given by its changes, count along the chain named.

The target of the first assay is T1, recombinant biotinylated CD71 extracellular domain (Sino Biologics) with an N-terminal 6His tag (human, UniProt P02786 89-760, biotinylated (site not stated)).
T1 construct: extracellular domain; also called hCD71; huCD71 ECD
T1 sequence (P02786 other isoform, or with tags, fused parts or gaps): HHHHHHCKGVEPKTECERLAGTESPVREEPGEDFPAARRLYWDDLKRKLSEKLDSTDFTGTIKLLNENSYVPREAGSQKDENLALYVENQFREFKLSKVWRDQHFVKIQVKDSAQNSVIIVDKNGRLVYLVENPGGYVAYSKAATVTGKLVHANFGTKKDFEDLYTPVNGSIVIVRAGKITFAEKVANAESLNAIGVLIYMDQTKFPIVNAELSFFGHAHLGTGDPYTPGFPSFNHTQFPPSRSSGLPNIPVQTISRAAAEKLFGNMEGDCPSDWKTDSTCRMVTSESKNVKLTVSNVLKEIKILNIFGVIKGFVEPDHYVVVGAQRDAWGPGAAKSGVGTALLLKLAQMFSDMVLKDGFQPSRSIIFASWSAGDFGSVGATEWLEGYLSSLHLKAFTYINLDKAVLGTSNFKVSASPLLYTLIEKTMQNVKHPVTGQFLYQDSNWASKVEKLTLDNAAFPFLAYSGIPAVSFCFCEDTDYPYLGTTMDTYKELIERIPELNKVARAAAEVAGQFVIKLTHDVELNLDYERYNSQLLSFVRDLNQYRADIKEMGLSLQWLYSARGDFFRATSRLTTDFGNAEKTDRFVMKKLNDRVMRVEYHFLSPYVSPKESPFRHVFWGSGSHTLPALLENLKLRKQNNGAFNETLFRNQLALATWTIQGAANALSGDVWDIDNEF
Nature of the assay: primary solution ELISA screen. For orientation: In an ELISA, binding on a coated surface is turned into a signal by an enzyme label.
As to B1, the RLU worked out at 2.45e+06 RLU.
As to B2, the RLU was determined as 491000 RLU.
With B3, the RLU stood at 1.99e+06 RLU.
In the case of B4, the RLU worked out at 579000 RLU.
As for B5, the RLU is 408000 RLU.
B6: the RLU was 222000 RLU.
The same measure, in the same setting: to B7 belongs 791000 RLU; to B8, 844000 RLU.
Regarding B9, the RLU came out at 1.4e+06 RLU.
Still for that read-out and setting: to B10 belongs 273000 RLU.
On the same count and under the same terms, to B11 belongs 282000 RLU.
Regarding B12, the RLU worked out at 726000 RLU.
For the molecule B13, the RLU turned out to be 957000 RLU.
Consider B14, for which the RLU came to 1.39e+06 RLU.
For the molecule B15, the RLU was found to be 919000 RLU.
Regarding B16, the RLU was found to be 642000 RLU.
In the case of B17, the RLU stood at 383000 RLU.
B18: the RLU came to 657000 RLU.
In the case of B19, the RLU is 3.15e+06 RLU.
For B20, the RLU amounted to 430000 RLU.
Still for that read-out and setting: to B21 belongs 1.31e+06 RLU; to B22, 297000 RLU; to B23, 564000 RLU.

In the next assay the target is T1, recombinant biotinylated CD71 …. Nature of the assay: primary solution ELISA screen, signal on hCD71 over HSA.
Regarding B1, the “hCD71:HSA” value stood at 374.
Regarding B2, the “hCD71:HSA” value stood at 74.
Turning to B3, the “hCD71:HSA” value turned out to be 106.
As to B4, the “hCD71:HSA” value came out at 85.
As for B5, the “hCD71:HSA” value is 79.
On to B6, for which the “hCD71:HSA” value was found to be 58.
Same read-out and setting: to B7 belongs 43; to B8, 25.
On to B9, for which the “hCD71:HSA” value worked out at 1280.
Same read-out and setting: then B10, with 46; and B11, with 77; and B12, with 48.
With B13, the “hCD71:HSA” value stood at 147.
In the case of B14, the “hCD71:HSA” value was 110.
Take B15: the “hCD71:HSA” value was determined as 141.
Same read-out and setting: to B16 belongs 138; to B17, 14; to B18, 95.
B19: the “hCD71:HSA” value was 105.
The same measure, in the same setting: then B20, with 91; and B21, with 117.
In the case of B22, the “hCD71:HSA” value was found to be 127.
Consider B23, for which the “hCD71:HSA” value is 46.

Source of the values: patent US20220332795A1 (ARO BIOTHERAPEUTICS, published 2022).
